Data: article PMC5056459, “Antagonistic roles of Drosophila Tctp and Brahma in chromatin remodelling and stabilizing repeated sequences” (Nature Communications, 2016)

Target: T1, GST-Brm 304-747 (Drosophila, UniProt P25439 304-747)
T1 construct: in pGEX5X-1; also called middle part of Brm protein; source: E. coli Rosetta2, extracted and dialysed
Test: pull-down; GST-Brm fragments as baits, MBP-Tctp as prey, 5 micrograms each; PDB (20 mM Tris-HCl pH 7.5, 150 mM NaCl, 0.5 mM EDTA, 10% glycerol, 0.1% Triton X-100, 1 mM DTT) with 0.2% BSA, 2-3 h at 4 °C; western blot with anti-GST and anti-MBP; proteins extracted from E. coli and dialysed
Conditions: both partners purified

T1 sequence (P25439 304-747): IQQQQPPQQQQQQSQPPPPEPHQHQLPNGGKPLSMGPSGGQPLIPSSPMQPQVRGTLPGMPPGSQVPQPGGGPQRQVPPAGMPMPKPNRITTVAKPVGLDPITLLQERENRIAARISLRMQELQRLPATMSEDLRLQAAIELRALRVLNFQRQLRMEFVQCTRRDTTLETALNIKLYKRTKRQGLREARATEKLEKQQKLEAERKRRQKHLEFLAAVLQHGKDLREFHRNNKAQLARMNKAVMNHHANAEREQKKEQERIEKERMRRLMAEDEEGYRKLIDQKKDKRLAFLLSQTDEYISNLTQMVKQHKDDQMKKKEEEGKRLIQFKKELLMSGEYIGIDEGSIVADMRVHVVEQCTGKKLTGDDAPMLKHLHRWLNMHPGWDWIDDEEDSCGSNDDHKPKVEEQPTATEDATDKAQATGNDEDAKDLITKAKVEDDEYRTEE

B1: MBP-Tctp (natural protein, Drosophila, UniProt Q9VGS2 1-172, looked up)
chain: MKIYKDIITGDEMFADTYKMKLVDDVIYEVYGKLITRQGDDIKLEGANASAEEADEGTDITSESGVDVVLNHRLTECFAFGDKKSYTLYLKDYMKKVLAKLEEKSPDQVDIFKTNMNKAMKDILGRFKELQFFTGESMDCDGMVALVEYREINGDSVPVLMFFKHGLEEEKC
notes: Drosophila Tctp in pMAL-c2; also called MBP-tagged Tctp; source: E. coli Rosetta2, extracted and dialysed
binding result: binds
